Source: the nanobody polyreactivity screen of Harvey et al. (2022)

Test: yeast display, Sf9 membrane polyspecificity reagent, FACS + sequencing; frameworks hold sequencing errors
Procedure, shortened: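 Galactose induction of a Saccharomyces cerevisiae BJ5465 synthetic nanobody display library ran 36–48 hours. The cells were then stained for 1 hour at 4 °C with 10% biotinylated, detergent-solubilized Sf9 membrane reagent, pulled down on streptavidin microbeads and FACS-sorted into low and high (top ~1%) gates on expression and reagent-binding fluorescence. Labels for polyreactivity follow the gate of origin.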
For “QVQLHESGGGLVQAGGSLRLSCAASGTISVTYNMAWYRQAPGKERECVAGNSTGATTNYADSVKGRFTIRRDNAKNTVYLQMNSLKPEDTAVYYCAAHIYRQDHFYYWGQGTQVTVSS”, the “polyreactivity (PSR sort gate)” value was “low polyreactivity”. With “QVQLVDSGGGLVQAGGSLRLSCAASGFIFRSYALGWYRQAPGKERELVAAISRRGGSTYYADSVKGRFTISRDHAKNTVYLQMNSLKPEDTAVYYCAAESRGVYGYAQSDFWGQGTQVTVSS” the “polyreactivity (PSR sort gate)” value was “high polyreactivity”. With “QVQLVESGGGLVHAGGILRLSSPASGSTIRYYAMGWYRQAPGKESQLVAVISTSGNTYYADSVKGRFTISRDNAKNTVYLQMNSLKPEDTAVYYCAARGVGGQISQEYDYWGQGTQVTVSS” the “polyreactivity (PSR sort gate)” value was “low polyreactivity”. In the case of “QVQLVESGGGLVQAGGSLRLSCAASGRIFYRNTMGWYRQAPGKERELVAAITWRAGRTYYADSVKGRFTISRDNAKNTVYLQMNSLKPEDTAVYYCNADRTAPERYSRVPSSDSWGQGTQVTVSS”, the “polyreactivity (PSR sort gate)” value is reported as “high polyreactivity”. With “QVQLVESGGGLVQAGGSLRLSCAASGRTFDSYTMGWYRQAPGKERELLADITFTGGSTYYADSVKGRFTISRDNAKNTVYLQMNSLKPEDTAVYYCAAESVAILGLVYPKGYGYWGQGTQVTVSS” the “polyreactivity (PSR sort gate)” value was “low polyreactivity”. For “QVQLVESGGGLVQAGGSLRLSCAASGNIFVRYSKGWYRQAPGKERELVAVISSGGSTNYADSVKGRFTISRDNAKNTVYLQMNSLKPEDSAVYYCARKYYSQAISSRKYGYWGQGTQVTVSS”, the “polyreactivity (PSR sort gate)” value was “high polyreactivity”. In the case of “QVQLVESGGGLVQAGGSLRLSCAASGRIFYQYAMGWYRQAPGKERELVASITTSGGNTYYADSVKGRFTISRDNAKITFYLQMNSLKPEDTAVYYCAARFNWRQWLYEYWGQGTQVTGSS”, the “polyreactivity (PSR sort gate)” value is reported as “low polyreactivity”. With “QVQLVESGGGRVQAGGSLRLSCAASGSIFTTYTMGWDRQAPGKESEWVAAITSSSGSTYYADSVKGRFTISRDNAKNTVYLQMNSLKPEDTAVYYCAARGYFDFSRYDSWGHGTQVTVSS” the “polyreactivity (PSR sort gate)” value was “low polyreactivity”. With “QVQLVESGGGLVQAGGSLRLSCAASGRTFYFYAMGWYRQAPGKERELVAAITFSGGSTYYADSVKGRFTISRDNAKNTVYLQMNSLKPEDTAVYYCIAVSTYKREYWGQGTQVTVSS” the “polyreactivity (PSR sort gate)” value was “low polyreactivity”. In the case of “QVQLVESGGGLVQAGGSLRLSCGASGRIFRYYAMGWYRQAPGTDREVVAAITQRGGSTYADSVKGRFTISRDNAKKTVYLQMNSLKPEDTADYSCPYRGSFLYDYWGQGTQVTVSS”, the “polyreactivity (PSR sort gate)” value is reported as “low polyreactivity”. With “QVQLVESGGGLVQAGGSLRLSCAASGSTFHSYVMGWYRQAPGKERELVAAITSRGGSTNYADSVKGRFTISRDNAKNTVYLQMNSLKPEDTAVYYCAADGYWGWSYFRYDYWGQGTQVTVSS” the “polyreactivity (PSR sort gate)” value was “low polyreactivity”. In the case of “QDQLVESAGGLVQAGGSLRLSCAASGRIYVSNVMRWSRQAPGKERELVAAIDKSGGSTYYADSVKGRFTISRDNAKNTVYLQMNSLKPEDTAVYYCAATSYRQPYRYYYWGQGTQVTVSS”, the “polyreactivity (PSR sort gate)” value is reported as “high polyreactivity”. In the case of “QVHLVESGGGLVQAGGSLRLSCAASGSTFGSNAMGWYRQAPGKERELVAAIRGIVGSKYYADSVKGRFTISRDNAKNTVYLLMNSLKPEDTAVYYCAADIDFERDRYVYWGQGTQVTVSS”, the “polyreactivity (PSR sort gate)” value is reported as “low polyreactivity”. In the case of “QVQLVESGGGLVQAGGSLRLSCAASGYIFTTYAMGWYRQAPGKERELVAAISSSGGRTSYADSVKGRFTISRDNAKNTVYLQMNSLKPEDTAVYYCNARVAPKSRRITYGYWGQGTQVTVSS”, the “polyreactivity (PSR sort gate)” value is reported as “high polyreactivity”. For “QVQLVESGGGVVQAGGSLRLSCAASGFTYVYNAIGWYRQAPGKDMELVATISWRGGSTYADSVKGRFTISRDNAKNTVYLQINSRKPEDTAIYYCNAASRVSQAMDYWGQGTQVTVSS”, the “polyreactivity (PSR sort gate)” value was “high polyreactivity”. With “QVQLVESGGGLVQAGGSLRLSCAASGRTFRSYAMGWYRQAPGKERELVAAISRGGRTNYADSVKGRFTISRDNAKNTVYLQMNSLKPEDTAVYYCAAAQFRSYWAFDYWGQGTQVTVSS” the “polyreactivity (PSR sort gate)” value was “high polyreactivity”. For “QVQLVESGGGLVQGVGTLRLSCAASGITFVYYAMGWSRHAPVKERELFAAISSGGSSTYYADSVKGRFTMSRDTAKNTVYLQMHSQKPEDTAVYYCAATNYFPRLQWMDYWGQGTQVTVSS”, the “polyreactivity (PSR sort gate)” value was “low polyreactivity”. For “QVQLVESGGGLVQAGGSLRLSCAASGSIFPWYTMGWYRQAPGKERELVAAITSSGGGTYYADSVKGRFTISRDNAKNTVYLQINSLKPEDTAVYYCAAGLDWGPEYEYWGQGTQVTVSS”, the “polyreactivity (PSR sort gate)” value was “low polyreactivity”. For “QVQLVESGGGLVQAGGSLRLSCAASGSIFSTYAMGRYRQAPGKERELVAAITFGGGTTYYADSVKGRFTISRDNAKNTVYLQMNSLKPEDTAVYYCAARYYYGSWYFYYSDKYDYWGQGTKVTVSS”, the “polyreactivity (PSR sort gate)” value was “low polyreactivity”. For “QVQLVESGGGLVQAGGSLRLSCAASGSIFTDNAMGWYRQAPGKERELVAAITSNGGSTYYADSVKGRFTISRDNAKNTVYLQMNSLKPEDTAVYYCAADSLYREDDYWGHGTQVTVSS”, the “polyreactivity (PSR sort gate)” value was “low polyreactivity”. In the case of “QVQLVESGGGLVQAGGSLRLSCAASGSIFDYNAMGWYRQAPGKERELVAAISSGGSTNYADSVKGRFTISRDNAKNTVYLQMNSLKPEDTAVYYCNTGLYWLGYWPDDYWGQGTQVTVSS”, the “polyreactivity (PSR sort gate)” value is reported as “low polyreactivity”. For “QVQLVESGGGLVQAGGSLRLSCAASGRIFSRNARGWYRQATGKERELVAAITARSGTTFYADSVKGRFTISRDNAKNTVYLQMNSLKPEDTAVYYCAADGSPSLLDYWGQGTQVTVSS”, the “polyreactivity (PSR sort gate)” value was “high polyreactivity”. With “QVQLVESGGGLVQAGGSLRLSCAASGFIFRYYAMGWYRQAPGKERELVAAITSRGSSTYYADSVKGRFTISRDNAKNTVYLQMNSLKPEDTAVYYCAARLRGDYVRYYYWGQGTQVTVSS” the “polyreactivity (PSR sort gate)” value was “high polyreactivity”. For “QVQLVESGGGLVQAGGSLRLSCAASGSIFESYVMGWYRQAPGKERELVAAISSGGSTYYADSVKGRFTISRDNAKNTVYLQMNSLKPEDTAVYYCAKRSHTYSVPGVYNEGDYWGQGTQVTVSS”, the “polyreactivity (PSR sort gate)” value was “low polyreactivity”. For “QVQRVESGGGLVQAGGSLRLSCAASGFILNQYAMGWYRQAPGKASELVAAISNGGSTNYADSVKGRFTISRDNAKNTVYLQMNSLKPEDTAVYYCAKDQSLTYSSLWGYDYWGQGTQVTVSS”, the “polyreactivity (PSR sort gate)” value was “low polyreactivity”. In the case of “QVKLVESGGGLVKAGGRLRLSCAASGRTFWYNAMGRYRPAPGKESELVAAINFSGGITYYADSVKGRFTISRDNAKNTVYLQMNSLKPEDTAVYYCNAVSRGRDAAGNYWGQGTQVTVSS”, the “polyreactivity (PSR sort gate)” value is reported as “high polyreactivity”. For “QVQLVESGGGLVQAGGSLRLSCAASGSIFVTNGMGWYRQAPGKERELVAVISWGGGNTYYADSVKGRFTISRDNAKNTVYLQMNSLKPEDTAVYYCAVDIWGGEGYDSWGQGTQVTVSS”, the “polyreactivity (PSR sort gate)” value was “low polyreactivity”. With “QVQLVESGGGLVQAGGSLRLSCAASGSTFYTYAMGWYRQAPGKERELVAAISYRGGSTYYADSVKGRFTISRDNAKNTVYLQMNSLKPEDTSVYYCKVDGVVVGTKRGGYDYWGQGTQVTVSS” the “polyreactivity (PSR sort gate)” value was “low polyreactivity”. For “QVQLVESGGGLVQAGGSLRLSCDASGSTFGRNAMGCYRQAPGKESELVAAITASGGRTYYADSVKGRFTISRDNAKNTVYLQMNSLKPEDTAVYYCAAASRVGFLYYYWGQGTQVTLSS”, the “polyreactivity (PSR sort gate)” value was “low polyreactivity”. In the case of “QVQLVESGGGLVQAGGSLRLSCAASGFTFPLYAMGWYRQAPGKERELVAVISRSGGSTYYADSVKGRFTISRDNAKNTVYLQMNSLKPEDTAVYYCATRRRPQYNKYDYWGQGTQVTVSS”, the “polyreactivity (PSR sort gate)” value is reported as “high polyreactivity”. With “QVQLVESGGGLVQAGGSLRISCAASGSICNINAMGWYRQAPGKERELVAPISQSDGSTYYADSVKGRFTISRDNAKNTVYLQMNSLKPEDTAVYYCSADAYVLFYGDWYEFDYWGQGTQVTVSS” the “polyreactivity (PSR sort gate)” value was “high polyreactivity”. In the case of “QVQLVESGGGLVQAGGSLRLSCAASGRTFGRYAMGWYRQAPGKERELLARISYSGGSTYYADSVKGRFTISRDNAKNTDYLQMNSLKPEDTAVYYCAASFFGRFDPDRSYWGQGTQVTVSS”, the “polyreactivity (PSR sort gate)” value is reported as “high polyreactivity”. In the case of “QVQLVESGGGLVQAGGSLRLSCAASGRMFGRYVMGWYRQAAGKERELVASISTRGGRTYYADSVKGRFTISRDIAKNTVYLQMNSLKPEDTAVYYCAVVYPRFGAYDYWGQCTQVTVSS”, the “polyreactivity (PSR sort gate)” value is reported as “high polyreactivity”. For “QVQLVESGGGLVQAGGSLRLSCAASGSTFYYYAMGWYRQAPGKERELVAAISKSGGSTYYADSVKGRFTISRDNAKNTVYLQMNSLKPEDTAVYYCAARGRYISDYWGQGTQVTVSS”, the “polyreactivity (PSR sort gate)” value was “high polyreactivity”. With “QVQLVESGGGLVQAGGSLRLSCAASGIIFLVYARGWYRKAPGKVRELVAGISGSATSTNYADSVKGRFTISRDNAKNTVFLQMNSLKPEDTAVYYCAPEPDHVADSHSGYDYWGQGTQVTVSS” the “polyreactivity (PSR sort gate)” value was “low polyreactivity”. In the case of “QVQLVESGGGLVQAGGSLRLSCAASGSTFVDNAMGWYRQAPGKEREFVAAIDWSGGSTFYADSVKGRFTISRDNAKNTVYLQMNSLKPEDTAVYYCNADSYPQGDYWGQGSQVTVSS”, the “polyreactivity (PSR sort gate)” value is reported as “low polyreactivity”. For “QVQLVESGGGLVQAGGSLRLSSAASGITFSKNAMGRYRQAPGKERELVAAISNSGGSTYYADSVKGRFTISRDNAKNTVYLQMNSVNPEDTAVYYCASDGGYAYGYNHWGQGTQVTVSS”, the “polyreactivity (PSR sort gate)” value was “low polyreactivity”. In the case of “QVQLVESGGGLVQEGGSLRVSCAASGIIFSSYVMGWYRQAPGKERELVAAISKSGARTSYADSVKGRFTISRDNAKNTVYLQMNSLKPEDTAVYYCAATFRLERPTSKHPRYDYWGQGTQVTVST”, the “polyreactivity (PSR sort gate)” value is reported as “low polyreactivity”. With “QVQLVESGGGLVQAGGSLRLSCAASGRTFYYYAMGWYIQAPGKEREFVASISYSGARTYYADSVKGRFTISRDNAKNTVYLQMNSLKPEDTAVYYCNRYASNYGYIDYWGQGTQVTVSS” the “polyreactivity (PSR sort gate)” value was “high polyreactivity”. In the case of “QVQLVESGGGLVQAGGSLRLSCAASGNIFPRNAMGWYRQAPGKERELVAAISASGDNTYYADSVKGRFTISRDNAKNTVYLQMNSLKPEDTAVYYCAAGTFYESIQPYESVAYDYWGQGTQVTVSS”, the “polyreactivity (PSR sort gate)” value is reported as “low polyreactivity”. With “QDQLVESGGGLVQEGGSLRLSCAASGNIFNRYGMGWYRQAPGKEREFVAAISSGGGSTYYADSVKGRFTISRDNAKNTVYLQINRLKPEDTAVYYCAAGYSSLRRVGVYYWRQGTQVTVSS” the “polyreactivity (PSR sort gate)” value was “high polyreactivity”.
